Laboratory results taken from patent US20080268507.

Tests used:
Test in all cases: cleavage_in_vitro
[1] = test system: NPN297 (Nt.CviPII C-terminal truncation) (Chlorella virus NYs-1); conditions: 37 C 1 h; same specificity as wild type
[2] = test system: NPN329 (Nt.CviPII C-terminal truncation) (Chlorella virus NYs-1); conditions: 37 C 1 h; same specificity as wild type
[3] = test system: T1, Nt.CviPII (His+) (Chlorella virus NYs-1); conditions: NEBuffer 4 (10 mM Mg acetate), 37 C 1 h
T1 sequence: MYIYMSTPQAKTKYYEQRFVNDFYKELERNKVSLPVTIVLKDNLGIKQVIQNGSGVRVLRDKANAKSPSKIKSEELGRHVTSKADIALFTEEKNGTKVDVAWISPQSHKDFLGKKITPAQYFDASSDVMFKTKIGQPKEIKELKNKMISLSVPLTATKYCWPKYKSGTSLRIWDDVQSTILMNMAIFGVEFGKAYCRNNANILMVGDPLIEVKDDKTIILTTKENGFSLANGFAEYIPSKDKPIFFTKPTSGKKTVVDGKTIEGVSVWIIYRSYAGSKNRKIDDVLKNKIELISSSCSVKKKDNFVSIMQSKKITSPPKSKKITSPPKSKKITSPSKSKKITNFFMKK

Which results are given for pUC19 plasmid?
activity [1]: 2600 units/mg; activity [2]: 1400 units/mg; activity [3]: 9410 units/mg
